Results on five molecules are retold here after article PMC10990931, “Cryo-EM structures of RAD51 assembled on nucleosomes containing a DSB site” (Nature, 2024).

Series [1] deals with nucleosome (human histones H2A, H2B, H3.1 and H4 with Widom 601 DNA), P04908;P06899;P68431;P62805. The series is described as follows: electrophoretic mobility shift assay. To be noted: read off a plot.
Series [2] concerns the molecule itself. The series can be described thus: cryo-EM micrographs; RAD51 alone, without nucleosome and DNA (WT 92.5 µM, K64A/K70A 73.3 µM, R235D 55.2 µM), 1 mM AMP-PNP; 37 °C 30 min, 34 mM HEPES-NaOH pH 7.5, 135 mM NaCl, 1 mM MgCl2; filament formation.
Where [3] appears, read: ADP, RAD51 3.6 µM, parent: est. 100.
Setting [4] is: AMP-PNP, RAD51 1.2 µM, parent: est. 33.
Where [5] appears, read: AMP-PNP, RAD51 2.4 µM, parent: est. 92.
[6] abbreviates: AMP-PNP, RAD51 3.6 µM, parent: est. 99.

As to human RAD51 (from UniProt Q06609) K64A, the response was -1% in series [1] (setting [3]), 26% in series [1] (setting [4]), 86% in series [1] (setting [5]) and 98% in series [1] (setting [6]).
On the same counts, the results for “human RAD51 (from UniProt Q06609) K64A; K70A” are -5%, 3%, 20% and 59%.
Turning to human RAD51 (from UniProt Q06609) K70A, the response in series [1] (setting [3]) is -9%; in series [1] (setting [4]), 19%; in series [1] (setting [5]), 78%; in series [1] (setting [6]) it was 93%.

B1: RAD51(K64A/K70A) (natural protein, human)
chain: MAMQMQLEANADTSVEEESFGPQPISRLEQCGINANDVKKLEEAGFHTVEAVAYAPKKELINIAGISEAAADKILAEAAKLVPMGFTTATEFHQRRSEIIQITTGSKELDKLLQGGIETGSITEMFGEFRTGKTQICHTLAVTCQLPIDRGGGEGKAMYIDTEGTFRPERLLAVAERYGLSGSDVLDNVAYARAFNTDHQTQLLYQASAMMVESRYALLIVDSATALYRTDYSGRGELSARQMHLARFLRMLLRLADEFGVAVVITNQVVAQVDGAAMFAADPKKPIGGNIIAHASTTRLYLRKGRGETRICKIYDSPCLPEAEAMFAINADGVGDAKD
notes: RAD51, human; source: E. coli, purified (Ni-NTA agarose, thrombin, spermidine precipitation, MonoQ)
Regarding B1, the binding result in series [2] was “binds”.

B2: RAD51(R235D) (natural protein, human)
chain: MAMQMQLEANADTSVEEESFGPQPISRLEQCGINANDVKKLEEAGFHTVEAVAYAPKKELINIKGISEAKADKILAEAAKLVPMGFTTATEFHQRRSEIIQITTGSKELDKLLQGGIETGSITEMFGEFRTGKTQICHTLAVTCQLPIDRGGGEGKAMYIDTEGTFRPERLLAVAERYGLSGSDVLDNVAYARAFNTDHQTQLLYQASAMMVESRYALLIVDSATALYRTDYSGDGELSARQMHLARFLRMLLRLADEFGVAVVITNQVVAQVDGAAMFAADPKKPIGGNIIAHASTTRLYLRKGRGETRICKIYDSPCLPEAEAMFAINADGVGDAKD
notes: as for B1
As to B2, in series [2], the binding result is given as “binds”.
